According to US20120094898A1, “PEPTIDE DERIVATIVE” (Takeda Pharmaceutical Company Limited, priority 2010, published 2012):
Non-standard residues stand in square brackets, D forms with d. Primed or numbered codes have the meaning given here. *: point of attachment. Acetyl(2-(piperazin-1-yl)) = O=C(CN1CCNCC1)*; 2Nal = N[C@@H](Cc1ccc2ccccc2c1)C(=O)O; Pic(4) = not defined here; NMeA = CN[C@@H](C)C(=O)O; Ahx = NCCCCCC(=O)O

Legend:
human NMUR1 = biological target: T1, human NMUR1 (Homo sapiens, UniProt Q9HB89); test: Ca influx assay using CHO cells expressing human NMUR1; format: cell-based; conditions: CHO cells stably expressing human NMUR1; intracellular Ca elevation, FLIPR Tetra; relative to 1 μM porcine NMU-8; read-out: hNMUR1 EC50
T1 construct: expressed in transfected cells
T1 sequence (Q9HB89 1-426): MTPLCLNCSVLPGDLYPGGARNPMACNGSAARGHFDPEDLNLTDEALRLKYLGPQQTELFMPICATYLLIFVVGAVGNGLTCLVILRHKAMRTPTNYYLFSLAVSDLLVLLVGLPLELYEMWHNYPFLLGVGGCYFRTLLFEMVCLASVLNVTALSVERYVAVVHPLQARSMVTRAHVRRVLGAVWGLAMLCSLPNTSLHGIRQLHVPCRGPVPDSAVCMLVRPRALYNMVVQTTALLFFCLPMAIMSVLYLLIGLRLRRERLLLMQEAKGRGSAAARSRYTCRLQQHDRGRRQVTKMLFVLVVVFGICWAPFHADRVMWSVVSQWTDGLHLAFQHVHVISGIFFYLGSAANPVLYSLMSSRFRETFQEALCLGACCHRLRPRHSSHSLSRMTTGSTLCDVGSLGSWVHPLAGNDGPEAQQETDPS
Protocol: (§1) Ca Influx Assay Using CHO Cells Expressing Human NMUR1 or NMUR2
(§2) CHO cells stably expressing human NMUR1 or NMUR2 (J Biol Chem 275(28), pp. 21068-21074 (2000); and J Biol Chem 275(38), pp. 29528-29532 (2000)) were seeded onto a 384-well black/clear plate (Becton Dickinson) (10,000 cells per well) using nucleic acid-free MEM-α medium (Nikken Bio Medical Laboratory) containing 10% dialyzed blood serum (Gemini Bio Products) and 50 μg/mL gentamycin (Invitrogen), and cultured overnight in 5% carbon dioxide at 37° C. Then, after removal of the medium, the cells were loaded with Calcium Kit-Fluo 4 (Dojindo) containing 0.1% fatty acid-free BSA (Wako) at 37° C. (for 15 minutes). Further, test compounds at each concentration, as well as 1 μmol/L porcine NMU-8 (BACHEM) as a control group, were added to the cells, and an elevation of intracellular Ca concentration was monitored for 3 minutes using a FLIPR Tetra system (Molecular Devices). The agonist activity (%) of each of the test compounds for NMUR was calculated using the following formula: […]
(§3) wherein W represents a fluorescence value based on the intracellular Ca concentration in cells to which each test compound was added; X represents a fluorescence value based on the intracellular Ca concentration in cells to which only 0.1% DMSO was added; and Y represents a fluorescence value based on the intracellular Ca concentration in cells to which 1 μM porcine NMU-8 was added. The EC50 value of each test compound was calculated using Prism 5 (GraphPad).

human NMUR2 = biological target: T2, human NMUR2 (Homo sapiens, UniProt Q9GZQ4); test: Ca influx assay using CHO cells expressing human NMUR2; format: cell-based; conditions: CHO cells stably expressing human NMUR2; intracellular Ca elevation, FLIPR Tetra; relative to 1 μM porcine NMU-8; read-out: hNMUR2 EC50
T2 construct: expressed in transfected cells
Protocol: as §1, §2, §3

male C57BL/6J mice = test: Subcutaneous administration test in mice (anorectic activity, food intake); format: in vivo; conditions: 600 nmol/kg/day subcutaneous, food intake 1 day after initiation of administration, vs solvent control
Protocol: Subcutaneous Administration Test in Mice Anorectic activity of the test compounds was evaluated by the following method. Each of the test compounds was dissolved in a solvent (physiological saline), and an amount of 600 nmol/kg/day was used. An amount of 2 mL/Kg of an administration liquid obtained by dissolving each test compound in physiological saline was subcutaneously administered to the back of 9- to 10-week-old male C57BL/6J mice (CLEA Japan, Inc.) (at 25° C., having free access to food and water, 12 hours of light period and 12 hours of dark period). After the administration, the mice were returned to breeding cages (individual feeding), pre-weighed food was given, and the food intake 1 day after the initiation of the administration was measured. The food intake was calculated by subtracting the weight of the food remaining from the weight of the food given on the day the administration was initiated. Based on the calculated food intake, the anorectic ratio (%) of each test compound was calculated using the following formula. […] The group where only the solvent was administered as described above was used as a control group. Food Intake Inhibition (%): {(food intake of the control group−food intake of a test compound administration group)/food intake of the control group}×100

cynomolgus monkeys = test: Single subcutaneous administration test in monkeys (emetic response); format: in vivo
Protocol: Single Subcutaneous Administration Test in Monkeys
The emetic response induced by the test compounds was evaluated by the following method.
The test compound C was dissolved in physiological saline at a concentration of 1,000 nmol/kg and the test compound D was dissolved in physiological saline at a concentration of 300 nmol/kg, and used separately. An administration liquid obtained by dissolving each test compound in physiological saline was subcutaneously administered to the back of cynomolgus monkeys (2 males and 2 females each, 3 years and 11 months old to 4 years and 4 months old). After the administration, the animals were immediately returned to their individual cages, and videotaped for 10 hours. Vomiting and dry heaves observed during the videotaping were counted. Vomits were counted as the number of instances of vomiting up to 24 hours after the completion of the videotaping.

T2 sequence (Q9GZQ4 whole entry): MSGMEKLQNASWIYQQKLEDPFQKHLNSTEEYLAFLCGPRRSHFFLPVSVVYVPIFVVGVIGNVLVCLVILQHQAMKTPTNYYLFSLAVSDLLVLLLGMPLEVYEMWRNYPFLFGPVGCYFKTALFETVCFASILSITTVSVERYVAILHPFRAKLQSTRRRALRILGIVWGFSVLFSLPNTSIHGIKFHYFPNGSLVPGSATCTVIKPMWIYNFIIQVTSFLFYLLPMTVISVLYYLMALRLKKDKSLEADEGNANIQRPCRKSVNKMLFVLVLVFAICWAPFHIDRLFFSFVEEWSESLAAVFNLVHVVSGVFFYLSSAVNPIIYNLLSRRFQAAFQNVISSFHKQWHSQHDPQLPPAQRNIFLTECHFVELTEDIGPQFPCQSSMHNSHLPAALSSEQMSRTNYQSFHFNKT

| EC50 (human NMUR1) | EC50 (human NMUR2) | Substance | Food intake Inhibition (male C57BL/6J mice) | No. of vomiting (0-24 h) (cynomolgus monkeys; 300 nmol/kg single subcutaneous, n = 4 (2 males, 2 females)) | emetic response (vomiting), result in words (cynomolgus monkeys; single subcutaneous, C 1,000 nmol/kg, D 300 nmol/kg) |
| --- | --- | --- | --- | --- | --- |
| 170 nM | 5.9 nM | PEG20k(AL)-Acp0,Nal(2)2,NMeAla6-NMU-8 ({PEG20k(AL)-Ahx}-Y[2Nal]LFR[NMeA]RN-NH2) [Compound G, PEG20k(AL)-Acp-Tyr-Nal(2)-Leu-Phe-Arg-NMeAla-Arg-Asn-NH2] | 71.4% | – | – |
| > 1000 nM | 8.8 nM | PEG20k(AL)-NpipAc0,Nal(2)2,Ala6-NMU-8 ({PEG20k(AL)-Acetyl(2-(piperazin-1-yl))}-Y[2Nal]LFRARN-NH2) [Compound D, PEG20k(AL)-NpipAc-Tyr-Nal(2)-Leu-Phe-Arg-Ala-Arg-Asn-NH2] | 70.5% | 0 | prevent vomiting |
| > 1000 nM | 39 nM | PEG20k(AL)-PEG(2)0,Nal(2)2,NMeAla6-NMU-8 ({PEG20k(AL)-PEG(2)}-Y[2Nal]LFR[NMeA]RN-NH2) [PEG20k(AL)-PEG(2)-Tyr-Nal(2)-Leu-Phe-Arg-NMeAla-Arg-Asn-NH2] | 68.6% | – | – |
| > 1000 nM | 54 nM | PEG20k(AL)-Pic(4)0,Nal(2)2,NMeAla6-NMU-8 ({PEG20k(AL)-Pic(4)}-Y[2Nal]LFR[NMeA]RN-NH2; reading uncertain) [Compound F, PEG20k(AL)-Pic(4)-Tyr-Nal(2)-Leu-Phe-Arg-NMeAla-Arg-Asn-NH2] | 74.3% | – | – |
